Reference: patent US20190177391A1, “ANGIOPOIETIN-LIKE PROTEIN 8 (ANGPTL8)” (BAYLOR RESEARCH INSTITUTE, priority 2016, published 2019)

Tests used:
[1] = system: Notch1; test: Notch1 expression in HL-1 atria muscle cells treated with ADM; type: cell-based, mouse; settings: HL-1 cells; ADM 0.25, 0.5, 1.0 μM, 48 hrs
[2] = ELISA for fasting plasma human ANGPTL8; type: in vivo, rat; settings: protein therapy; intramuscular daily for 14 days, 5, 20, 40 μg/kg/day; day 3, 7, 10 and 14
Protocol: (§1) There were 120 rats divided into three control groups of 30 rats each and a treatment group of 30 rats: (1) normal control rats; (2) ADM injection only; (3) ADM plus UTMD with a DsRed reporter gene (pXL-BASII-CI-DsRed/pCI-hyPB); (4) ADM plus UTMD with ANGPTL8 (pXL-BASII-CI-ANGPTL8/pCI-hyPB). All rats were euthanized at 3 days, 7 days, 14 days, 21 days and 28 days after UTMD. The thymidine analog, 5-bromo-2-deoxyuridine (BrdU) (100 mg/kg) was injected intraperitoneally 6 hours prior to euthanizing.
(§2) 15 rats divided into (1) normal control rats; (2) ADM plus Saline inject rats; (3) ADM plus ANGPTL8 protein at dose of 5 μg/kg/day intramuscular inject for 14 days; (4) ADM plus ANGPTL8 protein at dose of 20 μg/kg/day intramuscular inject for 14 days; (5) ADM plus ANGPTL8 protein at dose of 40 μg/kg/day intramuscular inject for 14 days; All rats were euthanized at 14 days after starting ANGTPL8 protein inject. The thymidine analog, 5-bromo-2-deoxyuridine (BrdU) (100 mg/kg) was injected intraperitoneally 6 hours prior to euthanasia. Human recombinant protein ANGTPL8 protein was purchased from Phoenix Pharmaceuticals (Cat #056-61, Burlingame, Calif., USA).
Fasting venous blood was collected in EDTA tubes from the tail vein, and plasma lipids were measured using standard enzymatic assays. Human ANGTPL8 was measured using ELISA (Phoenix Pharmaceuticals).

[3] = system: rat hearts with established adriamycin cardiomyopathy; test: Echocardiography of heart structure and function in established adriamycin cardiomyopathy; type: in vivo; settings: protein therapy; 5, 20, 40 μg/kg/day intramuscular for 14 days; ADM cardiomyopathy rats
Protocol: The protocol was planned to test the hypothesis that delivery of ANGPTL8 by UTMD could reverse established adriamycin (ADM) cardiomyopathy defined as a fractional shortening <30% by echocardiography after injection of ADM (Iliskovic, et al., 1997) at total dose of 15 mg/kg/ip, 2.5 mg/kg/ip 6 times over 2 weeks.
as §1
as §2, with “Human recombinant protein ANGTPL8 protein was purchased from Phoenix Pharmaceuticals (Cat #056-61, Burlingame, Calif., USA).” left out

[4] = system: ISL-1; test: ISL-1 positive cardiac progenitor cells in epicardium and sub-epicardium (staining, qRT-PCR); type: in vivo, rat; settings: protein injection, dose dependent manner, after 14 days treatment
Protocol: as §1
as §2, with “Human recombinant protein ANGTPL8 protein was purchased from Phoenix Pharmaceuticals (Cat #056-61, Burlingame, Calif., USA).” left out
Total RNA was isolated from 100 mg of pancreas, liver and left quadratic skeletal muscle using the RNeasy mini kit (Qiagen). Real-time quantitative RT-PCR (qRT-PCR) analysis was performed on an ABI 7700 Sequence Detector (Applied Biosystems, Grand Island, N.Y., USA) using SYBR Green (RT2 SYBR Green qPCR Kit; Qiagen, Boston, Mass., USA). […]

Molecule	Notch1 expression [1]	human ANGPTL8 in fasting plasma [2]	LV fractional shortening [3]	LV mass [3]	ISL-1 positive cells in epicardial layer [4]
COc1cccc2c1C(=O)c1c(O)c3c(c(O)c1C2=O)C[C@@](O)(C(=O)CO)C[C@@H]3O[C@H]1C[C@H](N)[C@H](O)[C@H](C)O1 [ADM, adriamycin]	significantly inhibited	–	–	–	–
ANGPTL8 protein: Human recombinant ANGPTL8 protein purchased from Phoenix Pharmaceuticals (Cat #056-61), injected intramuscularly (protein, UniProt Q6UXH0 22-198, looked up) Angiopoietin-like protein 8: APMGGPELAQHEELTLLFHGTLQLGQALNGVYRTTEGRLTKARNSLGLYGRTIELLGQEVSRGRDAAQELRASLLETQMEEDILQLQAEATAEVLGEVAQAQKVLRDSVQRLEVQLRSAWLGPAYREFEVLKAHADKQSHILWALTGHVQRQRREMVAQQHRLRQIQERLHTAALPA	–	detected	some degree of restoration	some degree of restoration	activated
